Numbered stars: 1 amine (or outer) side, 2 acyl side, 3 side chain; on linkers, the order of the positions; unused ones are H or OH. Bridge positions count the residues as written; N and C are the ends. * marks the point of attachment. C20 diacid = O=C(O)CCCCCCCCCCCCCCCCCCC(=O)*; γGlu = O=C(O)[C@H](CCC(=O)[*:2])N[*:1]
T1: human amylin 3(a) receptor (human calcitonin receptor + RAMP-3) (human, UniProt P30988 25-474; O60896 24-148, limits assumed)
T1 sequence (looked up) 1: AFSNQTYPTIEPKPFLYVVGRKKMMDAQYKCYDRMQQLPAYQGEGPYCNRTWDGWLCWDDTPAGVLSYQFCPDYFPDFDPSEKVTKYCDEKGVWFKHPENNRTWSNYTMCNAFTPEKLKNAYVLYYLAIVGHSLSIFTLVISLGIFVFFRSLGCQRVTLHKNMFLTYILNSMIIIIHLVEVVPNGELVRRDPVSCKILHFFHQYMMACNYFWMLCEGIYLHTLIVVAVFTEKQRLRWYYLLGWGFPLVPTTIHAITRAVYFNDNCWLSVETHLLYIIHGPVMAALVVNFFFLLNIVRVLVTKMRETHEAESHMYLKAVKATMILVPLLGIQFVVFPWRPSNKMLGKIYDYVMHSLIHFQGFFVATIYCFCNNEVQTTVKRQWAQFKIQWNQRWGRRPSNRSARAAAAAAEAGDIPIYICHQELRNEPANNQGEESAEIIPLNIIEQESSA
T1 sequence (looked up) 2: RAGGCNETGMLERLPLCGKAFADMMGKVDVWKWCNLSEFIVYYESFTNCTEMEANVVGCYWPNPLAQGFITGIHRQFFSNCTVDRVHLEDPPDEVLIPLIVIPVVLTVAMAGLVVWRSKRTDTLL

T2: human calcitonin receptor (human, UniProt P30988 25-474)
T2 sequence (looked up): T1 sequence (looked up) 1

B1: N^α1-[(4S)-4-carboxy-4-(19-carboxynonadecanoylamino)butanoyl]-[Glu14,Arg17,Pro21,Pro27,Pro37]-h-amylin (peptide)
peptide: {C20 diacid-γGlu}-KCNTATCATQRLAEFLRHSSPNFGAIPSSTNVGSNTP-NH2
modifications: disulfide 2-7
SMILES: CC[C@H](C)[C@H](NC(=O)[C@H](C)NC(=O)CNC(=O)[C@H](Cc1ccccc1)NC(=O)[C@H](CC(N)=O)NC(=O)[C@@H]1CCCN1C(=O)[C@H](CO)NC(=O)[C@H](CO)NC(=O)[C@H](Cc1c[nH]cn1)NC(=O)[C@H](CCCNC(=N)N)NC(=O)[C@H](CC(C)C)NC(=O)[C@H](Cc1ccccc1)NC(=O)[C@H](CCC(=O)O)NC(=O)[C@H](C)NC(=O)[C@H](CC(C)C)NC(=O)[C@H](CCCNC(=N)N)NC(=O)[C@H](CCC(N)=O)NC(=O)[C@@H](NC(=O)[C@H](C)NC(=O)[C@@H]1CSSC[C@H](NC(=O)[C@H](CCCCN)NC(=O)CC[C@H](NC(=O)CCCCCCCCCCCCCCCCCCC(=O)O)C(=O)O)C(=O)N[C@@H](CC(N)=O)C(=O)N[C@@H]([C@@H](C)O)C(=O)N[C@@H](C)C(=O)N[C@@H]([C@@H](C)O)C(=O)N1)[C@@H](C)O)C(=O)N1CCC[C@H]1C(=O)N[C@@H](CO)C(=O)N[C@@H](CO)C(=O)N[C@H](C(=O)N[C@@H](CC(N)=O)C(=O)N[C@H](C(=O)NCC(=O)N[C@@H](CO)C(=O)N[C@@H](CC(N)=O)C(=O)N[C@H](C(=O)N1CCC[C@H]1C(N)=O)[C@@H](C)O)C(C)C)[C@@H](C)O
notes: also called compound 8
B2: N^α1-[(4S)-4-carboxy-4-(19-carboxynonadecanoylamino)butanoyl]-[Glu14,Arg17,Pro21,Pro27,His35]-h-amylin (peptide)
peptide: {C20 diacid-γGlu}-KCNTATCATQRLAEFLRHSSPNFGAIPSSTNVGSHTY-NH2
modifications: disulfide 2-7
SMILES: CC[C@H](C)[C@H](NC(=O)[C@H](C)NC(=O)CNC(=O)[C@H](Cc1ccccc1)NC(=O)[C@H](CC(N)=O)NC(=O)[C@@H]1CCCN1C(=O)[C@H](CO)NC(=O)[C@H](CO)NC(=O)[C@H](Cc1c[nH]cn1)NC(=O)[C@H](CCCNC(=N)N)NC(=O)[C@H](CC(C)C)NC(=O)[C@H](Cc1ccccc1)NC(=O)[C@H](CCC(=O)O)NC(=O)[C@H](C)NC(=O)[C@H](CC(C)C)NC(=O)[C@H](CCCNC(=N)N)NC(=O)[C@H](CCC(N)=O)NC(=O)[C@@H](NC(=O)[C@H](C)NC(=O)[C@@H]1CSSC[C@H](NC(=O)[C@H](CCCCN)NC(=O)CC[C@H](NC(=O)CCCCCCCCCCCCCCCCCCC(=O)O)C(=O)O)C(=O)N[C@@H](CC(N)=O)C(=O)N[C@@H]([C@@H](C)O)C(=O)N[C@@H](C)C(=O)N[C@@H]([C@@H](C)O)C(=O)N1)[C@@H](C)O)C(=O)N1CCC[C@H]1C(=O)N[C@@H](CO)C(=O)N[C@@H](CO)C(=O)N[C@H](C(=O)N[C@@H](CC(N)=O)C(=O)N[C@H](C(=O)NCC(=O)N[C@@H](CO)C(=O)N[C@@H](Cc1c[nH]cn1)C(=O)N[C@H](C(=O)N[C@@H](Cc1ccc(O)cc1)C(N)=O)[C@@H](C)O)C(C)C)[C@@H](C)O
notes: also called compound 18
B3: N^α1-[(4S)-4-carboxy-4-(19-carboxynonadecanoylamino)butanoyl]-[Glu14,Arg17,Pro21,Pro27,Asp35,Pro37]-h-amylin (peptide)
peptide: {C20 diacid-γGlu}-KCNTATCATQRLAEFLRHSSPNFGAIPSSTNVGSDTP-NH2
modifications: disulfide 2-7
SMILES: CC[C@H](C)[C@H](NC(=O)[C@H](C)NC(=O)CNC(=O)[C@H](Cc1ccccc1)NC(=O)[C@H](CC(N)=O)NC(=O)[C@@H]1CCCN1C(=O)[C@H](CO)NC(=O)[C@H](CO)NC(=O)[C@H](Cc1c[nH]cn1)NC(=O)[C@H](CCCNC(=N)N)NC(=O)[C@H](CC(C)C)NC(=O)[C@H](Cc1ccccc1)NC(=O)[C@H](CCC(=O)O)NC(=O)[C@H](C)NC(=O)[C@H](CC(C)C)NC(=O)[C@H](CCCNC(=N)N)NC(=O)[C@H](CCC(N)=O)NC(=O)[C@@H](NC(=O)[C@H](C)NC(=O)[C@@H]1CSSC[C@H](NC(=O)[C@H](CCCCN)NC(=O)CC[C@H](NC(=O)CCCCCCCCCCCCCCCCCCC(=O)O)C(=O)O)C(=O)N[C@@H](CC(N)=O)C(=O)N[C@@H]([C@@H](C)O)C(=O)N[C@@H](C)C(=O)N[C@@H]([C@@H](C)O)C(=O)N1)[C@@H](C)O)C(=O)N1CCC[C@H]1C(=O)N[C@@H](CO)C(=O)N[C@@H](CO)C(=O)N[C@H](C(=O)N[C@@H](CC(N)=O)C(=O)N[C@H](C(=O)NCC(=O)N[C@@H](CO)C(=O)N[C@@H](CC(=O)O)C(=O)N[C@H](C(=O)N1CCC[C@H]1C(N)=O)[C@@H](C)O)C(C)C)[C@@H](C)O
notes: also called compound 11
B4: N^α1-[(4S)-4-carboxy-4-(19-carboxynonadecanoylamino)butanoyl]-[Asp14,Arg17,Pro21,Pro27,Pro37]-h-amylin (peptide)
peptide: {C20 diacid-γGlu}-KCNTATCATQRLADFLRHSSPNFGAIPSSTNVGSNTP-NH2
modifications: disulfide 2-7
SMILES: CC[C@H](C)[C@H](NC(=O)[C@H](C)NC(=O)CNC(=O)[C@H](Cc1ccccc1)NC(=O)[C@H](CC(N)=O)NC(=O)[C@@H]1CCCN1C(=O)[C@H](CO)NC(=O)[C@H](CO)NC(=O)[C@H](Cc1c[nH]cn1)NC(=O)[C@H](CCCNC(=N)N)NC(=O)[C@H](CC(C)C)NC(=O)[C@H](Cc1ccccc1)NC(=O)[C@H](CC(=O)O)NC(=O)[C@H](C)NC(=O)[C@H](CC(C)C)NC(=O)[C@H](CCCNC(=N)N)NC(=O)[C@H](CCC(N)=O)NC(=O)[C@@H](NC(=O)[C@H](C)NC(=O)[C@@H]1CSSC[C@H](NC(=O)[C@H](CCCCN)NC(=O)CC[C@H](NC(=O)CCCCCCCCCCCCCCCCCCC(=O)O)C(=O)O)C(=O)N[C@@H](CC(N)=O)C(=O)N[C@@H]([C@@H](C)O)C(=O)N[C@@H](C)C(=O)N[C@@H]([C@@H](C)O)C(=O)N1)[C@@H](C)O)C(=O)N1CCC[C@H]1C(=O)N[C@@H](CO)C(=O)N[C@@H](CO)C(=O)N[C@H](C(=O)N[C@@H](CC(N)=O)C(=O)N[C@H](C(=O)NCC(=O)N[C@@H](CO)C(=O)N[C@@H](CC(N)=O)C(=O)N[C@H](C(=O)N1CCC[C@H]1C(N)=O)[C@@H](C)O)C(C)C)[C@@H](C)O
notes: also called compound 10
B5: N^α1-[(4S)-4-carboxy-4-(19-carboxynonadecanoylamino)butanoyl]-[Glu14,Arg17,Pro21,Pro27,Pro29]-h-amylin (peptide)
peptide: {C20 diacid-γGlu}-KCNTATCATQRLAEFLRHSSPNFGAIPSPTNVGSNTY-NH2
modifications: disulfide 2-7
SMILES: CC[C@H](C)[C@H](NC(=O)[C@H](C)NC(=O)CNC(=O)[C@H](Cc1ccccc1)NC(=O)[C@H](CC(N)=O)NC(=O)[C@@H]1CCCN1C(=O)[C@H](CO)NC(=O)[C@H](CO)NC(=O)[C@H](Cc1c[nH]cn1)NC(=O)[C@H](CCCNC(=N)N)NC(=O)[C@H](CC(C)C)NC(=O)[C@H](Cc1ccccc1)NC(=O)[C@H](CCC(=O)O)NC(=O)[C@H](C)NC(=O)[C@H](CC(C)C)NC(=O)[C@H](CCCNC(=N)N)NC(=O)[C@H](CCC(N)=O)NC(=O)[C@@H](NC(=O)[C@H](C)NC(=O)[C@@H]1CSSC[C@H](NC(=O)[C@H](CCCCN)NC(=O)CC[C@H](NC(=O)CCCCCCCCCCCCCCCCCCC(=O)O)C(=O)O)C(=O)N[C@@H](CC(N)=O)C(=O)N[C@@H]([C@@H](C)O)C(=O)N[C@@H](C)C(=O)N[C@@H]([C@@H](C)O)C(=O)N1)[C@@H](C)O)C(=O)N1CCC[C@H]1C(=O)N[C@@H](CO)C(=O)N1CCC[C@H]1C(=O)N[C@H](C(=O)N[C@@H](CC(N)=O)C(=O)N[C@H](C(=O)NCC(=O)N[C@@H](CO)C(=O)N[C@@H](CC(N)=O)C(=O)N[C@H](C(=O)N[C@@H](Cc1ccc(O)cc1)C(N)=O)[C@@H](C)O)C(C)C)[C@@H](C)O
notes: also called compound 37

Target: T1, human amylin 3(a) receptor (human …)
Assay: cell-based or functional assay

hAmylin-R funct. EC50 (pM)	Binder
82 pM	B1
154 pM	B2
120 pM	B3
72 pM	B4
92 pM	B5

Target: T2, human calcitonin receptor
Assay: cell-based or functional assay

Ratio hCT/hAmylin funct.	Binder
1.1	B1
4.8	B2
0.9	B3
1	B4
4	B5

— patent US20140087995A1 (published 2014)
